pKd: −log10 of the molar value.

The target of test [1] is GST-DENV3 NS5 residues 865-900 (Dengue virus serotype 3). The experiment in a line: pull-down.
Test [2] addresses GST-DENV2 NS5 residues 865-900 (Dengue virus serotype 2). As to the kind of experiment: pull-down.
The target in test [3] is GST-DENV3 NS5 residues 865-900 (Dengue virus serotype 3). The experiment in a line: ELISA; solid-phase microtitre plate assay: GST-NLS from cell lysate captured on a glutathione coated plate and washed (PBS, 0.05% Tween-20); Impα in 2-fold serial dilutions in PBS from 12.5 μM, 1 h at RT; bound Impα detected with anti-6x His tag HRP antibody and TMB at 450 nm; one-site specific binding …. For orientation: ELISA stands for enzyme-linked immunosorbent assay.

The target in test [4] is GST-DENV1 NS5 residues 865-899 (Dengue virus serotype 1). The test is described as above.
For test [5], the target named is GST-DENV4 NS5 residues 865-901 (Dengue virus serotype 4). Described as above.
In test [6] the target is GST-DENV2 NS5 residues 865-900 (Dengue virus serotype 2). The description is as above.

Turning to “mouse importin-α lacking the auto-inhibitory importin-β binding domain (Impα) (domain or fragment)”, the pKd in test [1] was 6.43; in test [2], 6.57; in test [3], 6.18; in test [4], 4.27; in test [5], 4.73; in test [6], 5.34.

The pKd is the Kd on a negative log10 scale, so that one unit is a factor of ten. Read a low pKd as a large Kd.
